The text below walks through data of article PMC3820651, “Cyclic Nucleotide Dependent Dephosphorylation of Regulator of G-Protein Signaling 18 in Human Platelets” (PLoS ONE, 2013).

The assay deals with T1, GST-tagged 14-3-3γ (UniProt P61981 1-247).
T1 construct: 14-3-3γ, in the bacterial expression vector pGEX-4T3; Held on glutathione sepharose 4B as bait; also called GST-14-3-3γ; GST-14-3-3
T1 sequence (looked up): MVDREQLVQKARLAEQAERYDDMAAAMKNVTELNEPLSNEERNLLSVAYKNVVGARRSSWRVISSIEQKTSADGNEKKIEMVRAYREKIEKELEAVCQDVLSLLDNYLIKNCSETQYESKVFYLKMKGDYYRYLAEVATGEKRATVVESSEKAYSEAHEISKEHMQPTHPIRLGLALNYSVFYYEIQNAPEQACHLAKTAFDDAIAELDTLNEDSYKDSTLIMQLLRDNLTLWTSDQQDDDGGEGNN
The assay is described as follows: pull-down; glutathione sepharose 4B saturated with purified GST-14-3-3γ, incubated with lysates of transfected HEK293T cells; cells without or with 10 µM forskolin (time course or 15 min), RGS18 alone or co-expressed with myc-spinophilin and/or VSV-PP1 catalytic subunit; precipitates blotted with anti-RGS18 or anti-FLAG. The note with it: one partner purified.

B1: FLAG-tagged RGS18 (wild type) (natural protein, human, UniProt Q9NS28 1-235, looked up)
chain: METTLLFFSQINMCESKEKTFFKLIHGSGKEETSKEAKIRAKEKRNRLSLLVQKPEFHEDTRSSRSGHLAKETRVSPEEAVKWGESFDKLLSHRDGLEAFTRFLKTEFSEENIEFWIACEDFKKSKGPQQIHLKAKAIYEKFIQTDAPKEVNLDFHTKEVITNSITQPTLHSFDAAQSRVYQLMEQDSYTRFLKSDIYLDLMEGRPQRPTNLRRRSRSFTCNEFQDVQSDVAIWL
modifications: phosphoserine at S218 present in the basal state; phosphoserine at S49 (s3 band); phosphoserine at S216 after forskolin
notes: Regulator of G-protein signaling 18 (RGS18), 235 amino acids, in pcDNA4/TO; also called wt RGS18; wt-RGS18; source: HEK293T, transfected, in lysate
Consider B1, for which the “fold reduction of binding by forskolin against non-treated cells (cells expressing RGS18, spinophilin and PP1)” value turned out to be 21 fold; the “fold reduction of binding by forskolin against non-treated cells (cells expressing RGS18 alone)” value was found to be 2.6 fold; the “fold reduction of binding by forskolin against non-treated cells (cells expressing RGS18 and PP1)” value was determined as 25 fold; the “fold reduction of binding by forskolin against non-treated cells (cells expressing RGS18 and spinophilin)” value amounted to 3.7 fold.
